Values of other authors, collected in patent publication US20240247069A1, “FGFR3 BINDING MOLECULES AND METHODS OF USE THEREOF” (Regeneron Pharmaceuticals, Inc., priority 2023, published 2024).

B1: MS-Pro-29: anti-FGFR3 Ig-like domain 3 antibody of WO 2002/102972 A2; VH SEQ ID NO:40, VL SEQ ID NO:41 (antibody, V domains shown)
VH: QVQLVQSGAEVKKPGASVKVSCKASGYTFTSYYMHWVRQAPGQGLEWMGWINPNSGGTNYAQKFQGRVTMTRDTSISTAYMELSSLRSEDTAVYYCARTWQYSYFYYLDGGYYFDIWGQGTLVTVSS
VL: DIVLTQSPATLSLSPGERATLSCRASQSVSSSYLAWYQQKPGQAPRLLIYGASSRATGVPARFSGSGSGTDFTLTISSLEPEDFATYYCQQTNNAPVTFGQGTKVEIKRT
B2: MS-Pro-26: anti-FGFR3 Ig-like domain 3 antibody of WO 2002/102972 A2; VH SEQ ID NO:36, VL SEQ ID NO:37 (antibody, V domains shown)
VH: QVQLVQSGAEVKKPGASVKVSCKASGYTFTSYYMHWVRQAPGQGLEWMGWINPNSGGTNYAQKFQGRVTMTRDTSISTAYMELSSLRSEDTAVYYCARGYWYAYFTYINYGYFDNWGQGTLVTVSS
VL: DIALTQPASVSGSPGQSITISCTGTSSDVGGYNYVSWYQQHPGKAPKLMIYDVSNRPSGVSNRFSGSKSGNTASLTISGLQAEDEADYYCQSYDNNSDWFGGGTKLTVLGQ
B3: MS-Pro-28: anti-FGFR3 Ig-like domain 3 antibody of WO 2002/102972 A2; VH SEQ ID NO:38, VL SEQ ID NO:39 (antibody, V domains shown)
VH: QVQLVQSGAEVKKPGSSVKVSCKASGGTFSSYAISWVRQAPGQGLEWMGGIIPIFGTANYAQKFQGRVTITADESSTAYMELSSLRSEDTAVYYCARGGGWVSHGYYYLFDLWGQGTLVTVSS
VL: DIQMTQSPSSLSASVGDRVTITCRASQGISSYLAWYQQKPGKAPKLLIYAASSLQSGVPSRFSGSGSGTDFTLTISSLQPEDFAVYYCFQYGSIPPTFGQGTKVEIKRT
B4: FGA0007: anti-FGFR3 (S249C mutant) antibody of WO 2021/010326 A1; VH SEQ ID NO:88, VL SEQ ID NO:89 (antibody, V domains shown)
VH: QSVEESGGRLVTPGTPLTLTCTVSGFSLSSYPMSWVRQAPGKGLEWIGIISSSGRTYYASWAKGRFTISKASSTTAALKMTSLTTEDTATYFCARGGVYKYDDYGDYVLNLWGRGTLVTVSS
VL: AIEMTQTPFSVSAAVGGTVTINCQASENIYSNLAWYQQKPGQPPKLLIYAASYLASGVPSRFKGSGSGTDYTLTISGVQCADAATYYCQCTLYSSTYGVAFGGGTEVVVK
B5: MS-Pro-2: anti-FGFR3 Ig-like domain 2 antibody of WO 2002/102972 A2; VH SEQ ID NO:24, VL SEQ ID NO:25 (antibody, V domains shown)
VH: QVQLVQSGAEVKKPGASVKVSCKASGYTFTSYYMHWVRQAPGQGLEWMGWINPNSGGTNYAQKFQGRVTMTRDTSISTAYMELSSLRSEDTAVYYCARDFLGYEFDYWGQGTLVTVSS
VL: DIELTQPPSVSVAPGQTARISCSGDALGDKYASWYQQKPGQAPVLVIYDDSDRPSGIPERFSGSNSGNTATLTISGTQAEDEADYYCQSYDYSADYVFGGGTKLTVLGQ

tested on: FGFR3; details: Table T-3, exemplary FGFR3 D3 binding sequences from cited PCT publications

Molecule | Activity
B1 | Antagonistic
B2 | Antagonistic
B3 | Antagonistic

same assay, conditions: literature antibodies, sequences from cited PCT publications

Molecule | Activity
B1 | Antagonistic
B4 | Antagonistic
B2 | Antagonistic
B5 | Antagonistic
B3 | Antagonistic
